Source: publication PMC3638394 (2013)
Each block holds one binder with its values, some of them ahead of it. Where no end group is shown, it is not given here.

B2: αB-crystallin core domain (αBDom) 68-153 (protein)
chain: MRLEKDRFSVNLDVKHFSPEELKVKVLGDVIEVHGKHEERQDEHGFISREFHRKYRIPADVDPLTITSSLSSDGVLTVNGPRKQVS

Tests used:
Test in all cases: ion-mobility native mass spectrometry titration
[1] = molecular target: T1, αBExt C-terminal peptide, second binding (Homo sapiens, not fully specified; dimer with one αBExt peptide already bound)
T1 chain: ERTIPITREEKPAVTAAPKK

[2] = molecular target: T2, αBPal C-terminal peptide, second binding (Homo sapiens, not fully specified)
T2 chain: ERTIPITRE

[3] = molecular target: T3, αBExt C-terminal peptide, first binding (Homo sapiens)
T3 chain: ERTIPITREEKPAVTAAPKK

[4] = molecular target: T4, αBPal C-terminal peptide, first binding (Homo sapiens)
T4 chain: ERTIPITRE

[5] = molecular target: the molecule itself
[6] = molecular target: B2

Kd [1]: 300 µM
Kd [2]: 150 µM
B1: αB-crystallin core domain (αBDom) dimer 68-153 (protein)
chain: MRLEKDRFSVNLDVKHFSPEELKVKVLGDVIEVHGKHEERQDEHGFISREFHRKYRIPADVDPLTITSSLSSDGVLTVNGPRKQVS

Binder: B2
Kd [3]: ~70 µM
Kd [4]: ~70 µM
Kd [5]: ~2 µM

Kd [6]: 4 µM
B3: αB-crystallin core domain (αBDom) 68-153 (protein)
chain: MRLEKDRFSVNLDVKHFSPEELKVKVLGDVIEVHGKHEERQDEHGFISREFHRKYRIPADVDPLTITSSLSSDGVLTVNGPRKQVS
modifications: both subunits bound to αBPal peptide

Kd [6]: 6 µM
B4: αB-crystallin core domain (αBDom) 68-153 (protein)
chain: MRLEKDRFSVNLDVKHFSPEELKVKVLGDVIEVHGKHEERQDEHGFISREFHRKYRIPADVDPLTITSSLSSDGVLTVNGPRKQVS
modifications: both subunits bound to αBExt peptide
